Reference: article PMC7397094
Where two headings read alike, the source gives them in different places.

Tests used:
[1] = molecular target: human recombinant RetGC1 (retinal membrane guanylyl cyclase 1) (human) (UniProt Q02846)
[2] = molecular target: human recombinant RetGC1 (retinal membrane guanylyl cyclase 1) (human) (UniProt Q02846); remark: listed apart in the source
[3] = molecular target: human recombinant RetGC1 (retinal membrane guanylyl cyclase 1) (human) (UniProt Q02846); remark: listed apart in the source
[4] = molecular target: human recombinant RetGC1 (retinal membrane guanylyl cyclase 1) (human) (UniProt Q02846); remark: listed apart in the source

Chain of UniProt Q02846 (Q02846 52-1103): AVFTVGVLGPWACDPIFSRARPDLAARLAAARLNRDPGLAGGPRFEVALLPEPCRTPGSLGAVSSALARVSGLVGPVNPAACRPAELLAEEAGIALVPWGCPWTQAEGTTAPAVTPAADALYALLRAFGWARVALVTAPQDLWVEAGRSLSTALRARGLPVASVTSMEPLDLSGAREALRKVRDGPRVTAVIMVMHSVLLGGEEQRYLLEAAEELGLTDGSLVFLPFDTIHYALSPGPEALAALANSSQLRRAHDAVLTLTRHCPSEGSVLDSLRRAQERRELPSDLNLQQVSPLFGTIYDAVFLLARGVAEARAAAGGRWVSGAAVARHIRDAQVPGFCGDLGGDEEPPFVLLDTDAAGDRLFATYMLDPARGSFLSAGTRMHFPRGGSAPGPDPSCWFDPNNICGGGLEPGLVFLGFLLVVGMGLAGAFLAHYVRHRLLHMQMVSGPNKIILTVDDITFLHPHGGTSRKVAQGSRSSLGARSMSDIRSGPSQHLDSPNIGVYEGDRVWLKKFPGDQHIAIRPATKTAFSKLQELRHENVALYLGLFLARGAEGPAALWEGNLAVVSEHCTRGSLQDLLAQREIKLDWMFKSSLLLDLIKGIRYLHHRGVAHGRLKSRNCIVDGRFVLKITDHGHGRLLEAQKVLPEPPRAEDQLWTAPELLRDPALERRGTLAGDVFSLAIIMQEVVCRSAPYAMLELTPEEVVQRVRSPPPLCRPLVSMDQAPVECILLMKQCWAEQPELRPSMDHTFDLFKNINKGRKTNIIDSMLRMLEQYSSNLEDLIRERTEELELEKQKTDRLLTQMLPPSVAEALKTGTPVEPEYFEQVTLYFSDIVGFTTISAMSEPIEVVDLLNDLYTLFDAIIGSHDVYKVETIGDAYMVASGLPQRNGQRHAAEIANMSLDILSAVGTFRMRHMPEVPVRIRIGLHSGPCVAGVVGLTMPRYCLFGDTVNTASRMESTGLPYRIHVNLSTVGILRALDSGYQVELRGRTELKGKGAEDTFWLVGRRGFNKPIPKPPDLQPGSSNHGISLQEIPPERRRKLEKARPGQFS

Substance	IC50 of inhibition of GCAP1-activated RetGC1 activity [1] [nM]	RetGC1 activity left with 100 nM RD3, % of that without RD3 (1.5 uM GCAP1) [2] [%]	IC50 of inhibition of GCAP1-activated RetGC1 activity [3] [nM]	IC50 of inhibition of GCAP1-activated RetGC1 activity (empirical estimate) [4] [µM]
RD3 D59R (from UniProt Q7Z3Z2 1-195) (natural protein)	26.6	24.1		
RD3 E106K (from UniProt Q7Z3Z2 1-195) (natural protein)	13.5	17.5		
RD3 G94Y (from UniProt Q7Z3Z2 1-195) (natural protein)	20.7	22.5		
RD3 H89G (from UniProt Q7Z3Z2 1-195) (natural protein)	10.6	13.2		
RD3 L63R (from UniProt Q7Z3Z2 1-195) (natural protein)	882	82.8		
RD3 P146ter (from UniProt Q7Z3Z2 1-145) (domain or fragment)		11.7	3.4	
RD3 Q102L (from UniProt Q7Z3Z2 1-195) (natural protein)	59	28.5		
RD3 R99E (from UniProt Q7Z3Z2 1-195) (natural protein)	35.5	27.1		
RD3 R101A (from UniProt Q7Z3Z2 1-195) (natural protein)	261	48		
RD3 R101E (from UniProt Q7Z3Z2 1-195) (natural protein)	135	37.9		
RD3 S61Y (from UniProt Q7Z3Z2 1-195) (natural protein)	11.8	17.7		
RD3 S74R (from UniProt Q7Z3Z2 1-195) (natural protein)	15.6	15.5		
RD3 W6L/W9L (from UniProt Q7Z3Z2 1-195) (natural protein)		13.4	4.5	
RD3 W62A (from UniProt Q7Z3Z2 1-195) (natural protein)	253	49.7		
RD3 W62A/L63R (from UniProt Q7Z3Z2 1-195) (natural protein)				> 10
RD3 Y60A (from UniProt Q7Z3Z2 1-195) (natural protein)	630	65.3		
RD3 Y92A (from UniProt Q7Z3Z2 1-195) (natural protein)	9.8	13.3		
WT RD3 (retinal degeneration-3), bacterially expressed (from UniProt Q7Z3Z2 1-195) (natural protein)	3.6	11		
